Target: T1, murine HIP polypeptide (mouse hedgehog interacting protein) (mouse, UniProt Q7TN16 16-700)
T1 construct: In the expression cloning screen the protein was expressed in cells from a mouse limb bud cDNA library plasmid; also called Mouse HIP; mouse HIP clone
T1 sequence: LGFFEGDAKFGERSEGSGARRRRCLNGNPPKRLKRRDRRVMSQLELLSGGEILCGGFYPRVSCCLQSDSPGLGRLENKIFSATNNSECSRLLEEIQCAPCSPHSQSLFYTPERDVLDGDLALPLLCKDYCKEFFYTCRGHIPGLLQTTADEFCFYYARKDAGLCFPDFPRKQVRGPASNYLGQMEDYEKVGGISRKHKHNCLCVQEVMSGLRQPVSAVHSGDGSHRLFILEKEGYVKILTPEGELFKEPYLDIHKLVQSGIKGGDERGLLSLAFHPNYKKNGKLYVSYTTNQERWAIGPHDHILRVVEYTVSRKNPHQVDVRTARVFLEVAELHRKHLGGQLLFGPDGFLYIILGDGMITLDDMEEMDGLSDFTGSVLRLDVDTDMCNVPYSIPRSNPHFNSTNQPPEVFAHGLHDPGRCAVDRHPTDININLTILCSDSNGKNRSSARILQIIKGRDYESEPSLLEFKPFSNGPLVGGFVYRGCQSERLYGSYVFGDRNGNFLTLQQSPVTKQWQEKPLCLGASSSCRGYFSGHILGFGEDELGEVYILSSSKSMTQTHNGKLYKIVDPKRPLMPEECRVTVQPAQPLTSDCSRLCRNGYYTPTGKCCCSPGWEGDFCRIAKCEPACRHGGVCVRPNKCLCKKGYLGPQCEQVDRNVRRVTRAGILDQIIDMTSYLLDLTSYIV
Assay: ligand-receptor binding study

B1: Desert hedgehog (Dhh) (ligand)
chain: not shown
B1 gave a Kd of roughly 1 nM.
